This is an account of results in patent US20190192484A1 (UNIVERSITY OF CHICAGO, published 2019).

The experiment deals with Vimentin (endogenous, WT fibroblasts) (mouse, UniProt P20152 2-466). The experiment can be described thus: proximity ligation assay in WT fibroblasts with anti-BAD and anti-Vimentin (FIG. 8F).
Sequence of Vimentin (endogenous, WT fibroblasts) (P20152 2-466 limits assumed): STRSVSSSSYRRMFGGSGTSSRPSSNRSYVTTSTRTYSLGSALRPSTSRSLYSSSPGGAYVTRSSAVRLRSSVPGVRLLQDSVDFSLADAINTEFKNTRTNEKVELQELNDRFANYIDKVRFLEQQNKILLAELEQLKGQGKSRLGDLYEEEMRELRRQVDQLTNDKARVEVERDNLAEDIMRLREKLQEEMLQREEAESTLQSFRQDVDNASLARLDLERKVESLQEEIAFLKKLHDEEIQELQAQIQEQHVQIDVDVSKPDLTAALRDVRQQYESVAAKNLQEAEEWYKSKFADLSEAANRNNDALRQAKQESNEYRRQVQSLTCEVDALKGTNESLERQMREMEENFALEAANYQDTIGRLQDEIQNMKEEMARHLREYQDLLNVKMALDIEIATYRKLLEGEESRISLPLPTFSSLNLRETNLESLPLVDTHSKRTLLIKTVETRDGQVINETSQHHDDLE

B1: BCL-2-associated death promoter (BAD), endogenous in WT fibroblasts (other, mouse, UniProt Q61337 1-204, looked up)
chain: MGTPKQPSLAPAHALGLRKSDPGIRSLGSDAGGRRWRPAAQSMFQIPEFEPSEQEDASATDRGLGPSLTEDQPGPYLAPGLLGSNIHQQGRAATNSHHGGAGAMETRSRHSSYPAGTEEDEGMEEELSPFRGRSRSAPPNLWAAQRYGRELRRMSDEFEGSFKGLPRPKSAGTATQMRQSAGWTRIIQSWWDRNLGKGGSTPSQ
notes: Endogenous protein inside fixed cells (microscopy, proximity ligation assay); also called WT BAD
As for B1, the binding result is on record as “no binding”.
